According to patent US6656716:

Columns and labels:
[1] = target: T1, PAK5 activation loop peptide # 3, (C)RRKSLVGTPYWMAPE, aa 471-485 (not fully specified)
T1 chain: CRRKSLVGTPYWMAPE

[2] = target: T2, STLK4 activation loop peptide # 9, RNKVRKTFVGTPCWMAPE, aa 66-83 (not fully specified)
T2 chain: RNKVRKTFVGTPCWMAPE

[3] = target: T3, KHS1 activation loop peptide # 4, KRKSFIGTPYWMAPE, aa 171-185 (not fully specified)
T3 chain: KRKSFIGTPYWMAPE

[4] = target: T4, ZC1 activation loop peptide # 7, RRNTFIGTPYWMAPE, aa 184-198 (SEQ ID 125) (not fully specified)
T4 chain: RRNTFIGTPYWMAPE

[5] = target: T5, SULU1 activation loop peptide # 6, PANSFVGTPYWMAPE, aa 174-188 (not fully specified)
T5 chain: PANSFVGTPYWMAPE

[6] = target: T6, PAK5 activation loop peptide # 2, (C)RRKSLVGTPYWMAPE, aa 471-485
T6 chain: CRRKSLVGTPYWMAPE

[7] = target: T7, STLK2 activation loop peptide # 5, KRNTFVGTPFWMAPE, aa 175-189 (not fully specified)
T7 chain: KRNTFVGTPFWMAPE

[8] = target: T8, PAK5 activation loop peptide # 1, (C)RRKSLVGTPYWMAPE, aa 471-485
T8 chain: CRRKSLVGTPYWMAPE

[9] = target: T9, ZC1 activation loop peptide # 8, RRNTFIGTPYWMAPE, aa 184-198 (SEQ ID 126)
T9 chain: RRNTFIGTPYWMAPE

B1: human PAK5 (protein)
chain: MFGKRKKRVEISAPSNFEHRVHTGFDQHEQKFTGLPRQWQSLIEESARRPKPLVDPACITSIQPGAPKTIVRGSKGAKDGALTLLLDEFENMSVTRSNSLRRDSPPPPARARQENGMPEEPATTARGGPGKAGSRGRFAGHSEAGGGSGDRRRAGPEKRPKSSREGSGGPQESSRDKRPLSGPDVGTPQPAGLASGAKLAAGRPFNTYPRADTDHPSRGAQGEPHDVAPNGPSAGGLAIPQSSSSSSRPPTRARGAPSPGVLGPHASEPQLAPPACTPAAPAVPGPPGPRSPQREPQRVSHEQFRAALQLVVDPGDPRSYLDNFIKIGEGSTGIVCIATVRSSGKLVAVKKMDLRKQQRRELLFNEVVIMRDYQHENVVEMYNSYLVGDELWVVMEFLEGGALTDIVTHTRMNEEQIAAVCLAVLQALSVLHAQGVIHRDIKSDSILLTHDGRVKLSDFGFCAQVSKEVPRRKSLVGTPYWMAPELISRLPYGPEVDIWSLGIMVIEMVDGEPPYFNEPPLKAMKMIRDNLPPRLKNLHKVSPSLKGFLDRLLVRDPAQRATAAELLKHPFLAKAGPPASIVPLMRQNRTR
substrate (in vitro kinase assay) [1]: no | substrate (in vitro kinase assay) [2]: poor | substrate (in vitro kinase assay) [3]: yes | substrate (in vitro kinase assay) [4]: poor | substrate (in vitro kinase assay) [5]: poor | Km [6]: High Km for PAK5 (1-10 µM) | substrate (in vitro kinase assay) [6]: yes | substrate (in vitro kinase assay) [7]: poor | substrate (in vitro kinase assay) [8]: yes | substrate (in vitro kinase assay), note [8]: Equally well as MBB | substrate (in vitro kinase assay) [9]: poor | substrate (in vitro kinase assay), note [9]: Better than 7
